Results published in patent US20130195871A1 (AbbVie / Abbott, published 2013).
Each block holds one binder with its values, some of them ahead of it.

How the values were obtained:
EGFR on the cell surface [1] = target: T1, EGFR on the cell surface (human, UniProt P00533 25-1210); experiment: flow cytometry on cells, 2 ug/mL, C-terminal VD;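 further: cells stained for 30 to 60 min on ice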
T1 construct: whole, on cells
Description: (§1) Stable cell lines overexpressing a cell-surface antigen of interest or human tumor cell lines were harvested from tissue culture flasks and resuspended in phosphate buffered saline (PBS) containing 5% fetal bovine serum (PBS/FBS). Prior to staining, human tumor cells were incubated on ice with (100 μl) human IgG at 5 μg/ml in PBS/FCS. 1-5×10⁵ cells were incubated with antibody or DVD-Ig (2 μg/mL) in PBS/FBS for 30-60 minutes on ice. […] After 30 minutes incubation on ice, cells were washed twice and resuspended in PBS/FBS. Fluorescence was measured using a Becton Dickinson FACSCalibur (Becton Dickinson, San Jose, Calif.).
(§2) The geometric mean is the n root of the multiplication product of n fluorescent signals (a1×a2×a3 . . . an). With log-transformed data the geometric mean is used to normalize the weighting of the data distribution.

EGFR on the cell surface [2] = target: T1, EGFR on the cell surface; experiment: flow cytometry on cells, 2 ug/mL, N-terminal VD;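 further: cells stained for 30 to 60 min on ice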
Description: as §1, §2

Recombinant Human IGF1R [3] = target: T2, Recombinant Human IGF1R (human, UniProt P08069 31-932); experiment: SPR (Biacore), C-terminal VD;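 further: surface plasmon resonance with DVD-Ig proteins captured on an anti-IgG chip and recombinant antigen flowed over in HBS-EP buffer, Langmuir global fit, KD taken as koff/kon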
T2 construct: bought reagent
Description: (§3) The BIACORE assay (Biacore, Inc, Piscataway, N.J.) determined the affinity of antibodies or DVD-Ig proteins with kinetic measurements of on-rate and off-rate constants. Binding of antibodies or DVD-Ig proteins to a target antigen (for example, a purified recombinant target antigen) was determined by surface plasmon resonance-based measurements with a Biacore® 1000 or 3000 instrument (Biacore AB, Uppsala. Sweden) using running HBS-EP (10 mM HEPES [pH 7.4], 150 mM NaCl, 3 mM EDTA, and 0.005% surfactant P20) at 25° C. […] For example, approximately 5000 RU of goat anti-mouse IgG, (Fcγ), fragment specific polyclonal antibody (Pierce Biotechnology Inc, Rockford, Ill.) diluted in 10 mM sodium acetate (pH 4.5) was directly immobilized across a CM5 research grade biosensor chip using a standard amine coupling kit according to manufacturer's instructions and procedures at 25 μg/ml. Unreacted moieties on the biosensor surface were blocked with ethanolamine. Modified carboxymethyl dextran surface in flowcell 2 and 4 was used as a reaction surface. Unmodified carboxymethyl dextran without goat anti-mouse IgG in flow cell 1 and 3 was used as the reference surface. For kinetic analysis, rate equations derived from the 1:1 Langmuir binding model were fitted simultaneously to association and dissociation phases of all eight injections (using global fit analysis) with the use of Biaevaluation 4.0.1 software. Purified antibodies or DVD-Ig proteins were diluted in HEPES-buffered saline for capture across goat anti-mouse IgG specific reaction surfaces. Antibodies or DVD-Ig proteins to be captured as a ligand (25 μg/ml) were injected over reaction matrices at a flow rate of 5 μl/minute. The association and dissociation rate constants, kₒₙ (M⁻¹s⁻¹) and koff (s⁻¹) were determined under a continuous flow rate of 25 μl/minute. Rate constants were derived by making kinetic binding measurements at different antigen concentrations ranging from 10-200 nM. The equilibrium dissociation constant (M) of the reaction between antibodies or DVD-Ig proteins and the target antigen was then calculated from the kinetic rate constants by the following formula: KD=koff/kₒₙ. Binding was recorded as a function of time and kinetic rate constants were calculated.

[4] = target: T3, Recombinant Human MSP Receptor ECD-His tag (human, UniProt Q04912 25-957); experiment: SPR (Biacore), N-terminal VD;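 further: capture of antibodies or DVD-Ig proteins on an anti-mouse IgG chip surface, recombinant antigen injected at 10–200 nM in HBS-EP running buffer at 25 °C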
T3 construct: extracellular domain; bought reagent; also called RON

Recombinant Human IGF1R [5] = target: T2, Recombinant Human IGF1R; experiment: SPR (Biacore)
Description: as §3

B1: DVD2290 (bispecific antibody)
VH: EVQLVESGGGLVQPGGSLRLSCAASGFSLTNYGVHWVRQAPGKGLEWLGVGWSGGNTDYNTPFTSRLTINKDNSKNTVYLQMNSLRAEDTAVYYCARALTWYDYEFAYWGQGTLVTVSSASTKGPQVQLQESGPGLVKPSETLSLTCTVSGGSVSSGDYYWTWIRQSPGKGLEWIGHIYYSGNTNYNPSLKSRLTISIDTSKTQFSLKLSSVTAADTAIYYCVRDRVTGAFDIWGQGTMVTVSS
VL: DILLTQSPGTLSLSPGERATLSCRASQSIYTNIHWYQQKPGQAPRLLIKYASESISGIPDRFSGSGSGTDFTLTISRLEPEDFAVYYCQQNLNWPTTFGQGTKLEIKRTVAAPDIQMTQSPSSLSASVGDRVTITCQASQDISNYLNWYQQKPGKAPKLLIYDASNLETGVPSRFSGSGSGTDFTFTISSLQPEDIATYFCQHFDHLPLAFGGGTKVEIK
GEO MEAN (EGFR on the cell surface [1]): 448
GEO MEAN (EGFR on the cell surface [2]): 448

B2: DVD2326 (bispecific antibody)
VH: EVQLVQSGGGLVKPGGSLRLSCAASGFTFSSYAMHWVRQAPGKGLEWVAVISYDGSNKYYADSVKGRFTISRDNSKNTLYLQMNSLRAEDTAVYYCARFSGWPNNYYYYGMDVWGQGTTVTVSSASTKGPEVQLLESGGGLVQPGGSLRLSCTASGFTFSSYAMNWVRQAPGKGLEWVSAISGSGGTTFYADSVKGRFTISRDNSRTTLYLQMNSLRAEDTAVYYCAKDLGWSDSYYYYYGMDVWGQGTTVTVSS
VL: DVVMTQSPLSLPVTPGEPASISCRSSQSLLHSNGFNYVDWYLQKPGQSPHLLIYFGSYRASGVPDRFSGSGSGTDFTLKISRVEAEDVGVYYCMQALQTPPWTFGQGTKVEIRRTVAAPDIQMTQFPSSLSASVGDRVTITCRASQGIRNDLGWYQQKPGKAPKRLIYAASRLHRGVPSRFSGSGSGTEFTLTISSLQPEDFATYYCLQHNSYPCSFGQGTKLEIK
notes: DVD-Ig, outer AB005 / inner AB011
binding result (Recombinant Human IGF1R [3]): no binding (tested: 10-200 nM)
Kd [4]: 21 nM
koff [4]: 0.00091 s⁻¹

B3: DVD2340 (bispecific antibody)
VH: QVQLQESGPGLVKPSEILSLTCTVSGGSISSHYWSWVRQPPGKGLEWIGYIYYSGSTNYNPSLKSRVTISVDTSKNQFSLNLSSVTAADTAVYYCARIPNYYDRSGYYPGYWYFDLWGRGTLVTVSSASTKGPEVQLLESGGGLVQPGGSLRLSCTASGFTFSSYAMNWVRQAPGKGLEWVSAISGSGGTTFYADSVKGRFTISRDNSRTTLYLQMNSLRAEDTAVYYCAKDLGWSDSYYYYYGMDVWGQGTTVTVSS
VL: QAVLTQPSSLSAPPGASASLTCTLRSGFNVDSYRISWYQQKPGSPPQYLLRYKSDSDKQQGSGVPSRFSGSKDASANAGILLISGLQSEDEADYYCMIWHSSAWVFGGGTKLTVLRQPKAAPDIQMTQFPSSLSASVGDRVTITCRASQGIRNDLGWYQQKPGKAPKRLIYAASRLHRGVPSRFSGSGSGTEFTLTISSLQPEDFATYYCLQHNSYPCSFGQGTKLEIK
notes: DVD-Ig, outer AB034 / inner AB011
binding result (Recombinant Human IGF1R [3]): no binding (tested: 10-200 nM)
Kd [4]: 23 nM

B5: DVD2291 (bispecific antibody)
VH: QVQLQESGPGLVKPSETLSLTCTVSGGSVSSGDYYWTWIRQSPGKGLEWIGHIYYSGNTNYNPSLKSRLTISIDTSKTQFSLKLSSVTAADTAIYYCVRDRVTGAFDIWGQGTMVTVSSASTKGPEVQLVESGGGLVQPGGSLRLSCAASGFSLTNYGVHWVRQAPGKGLEWLGVGWSGGNTDYNTPFTSRLTINKDNSKNTVYLQMNSLRAEDTAVYYCARALTWYDYEFAYWGQGTLVTVSS
VL: DIQMTQSPSSLSASVGDRVTITCQASQDISNYLNWYQQKPGKAPKLLIYDASNLETGVPSRFSGSGSGTDFTFTISSLQPEDIATYFCQHFDHLPLAFGGGTKVEIKRTVAAPDILLTQSPGTLSLSPGERATLSCRASQSIYTNIHWYQQKPGQAPRLLIKYASESISGIPDRFSGSGSGTDFTLTISRLEPEDFAVYYCQQNLNWPTTFGQGTKLEIK
GEO MEAN (EGFR on the cell surface [1]): 541
GEO MEAN (EGFR on the cell surface [2]): 541

B7: DVD2324 (bispecific antibody)
VH: EVQLVQSGGGLVKPGGSLRLSCAASGFTFSSYAMHWVRQAPGKGLEWVAVISYDGSNKYYADSVKGRFTISRDNSKNTLYLQMNSLRAEDTAVYYCARFSGWPNNYYYYGMDVWGQGTTVTVSSASTKGPEVQLVQSGGGLVKPGGSLRLSCAASGFTFSSFAMHWVRQAPGKGLEWISVIDTRGATYYADSVKGRFTISRDNAKNSLYLQMNSLRAEDTAVYYCARLGNFYYGMDVWGQGTTVTVSS
VL: DVVMTQSPLSLPVTPGEPASISCRSSQSLLHSNGFNYVDWYLQKPGQSPHLLIYFGSYRASGVPDRFSGSGSGTDFTLKISRVEAEDVGVYYCMQALQTPPWTFGQGTKVEIRRTVAAPEIVLTQSPGTLSVSPGERATLSCRASQSIGSSLHWYQQKPGQAPRLLIKYASQSLSGIPDRFSGSGSGTDFTLTISRLEPEDFAVYYCHQSSRLPHTFGQGTKVEIK
notes: DVD-Ig, outer AB005 / inner AB077
binding result (Recombinant Human IGF1R [3]): no binding (tested: 10-200 nM)
Kd [4]: 21 nM
koff [4]: 0.00093 s⁻¹
kon [4]: 44000 M⁻¹ s⁻¹

B9: DVD2214 (bispecific antibody)
VH: EVQLVQSGAEVKKPGSSVKVSCKASGGTFSSYAISWVRQAPGQGLEWMGGIIPIFGTANYAQKFQGRVTITADKSTSTAYMELSSLRSEDTAVYYCARAPLRFLEWSTQDHYYYYYMDVWGKGTTVTVSSASTKGPEVQLLESGGGLVQPGGSLRLSCTASGFTFSSYAMNWVRQAPGKGLEWVSAISGSGGTTFYADSVKGRFTISRDNSRTTLYLQMNSLRAEDTAVYYCAKDLGWSDSYYYYYGMDVWGQGTTVTVSS
VL: SSELTQDPAVSVALGQTVRITCQGDSLRSYYATWYQQKPGQAPILVIYGENKRPSGIPDRFSGSSSGNTASLTITGAQAEDEADYYCKSRDGSGQHLVFGGGTKLTVLGQPKAAPDIQMTQFPSSLSASVGDRVTITCRASQGIRNDLGWYQQKPGKAPKRLIYAASRLHRGVPSRFSGSGSGTEFTLTISSLQPEDFATYYCLQHNSYPCSFGQGTKLEIK
notes: DVD-Ig, outer AB075 / inner AB011
Kd (Recombinant Human IGF1R [5]): 5.5 nM
koff (Recombinant Human IGF1R [5]): 0.00014 s⁻¹
kon (Recombinant Human IGF1R [5]): 26000 M⁻¹ s⁻¹

Further lines, results first:

Kd (Recombinant Human IGF1R [3]): 0.047 nM
koff (Recombinant Human IGF1R [3]): 2.3e-06 s⁻¹
kon (Recombinant Human IGF1R [3]): 49000 M⁻¹ s⁻¹
B4: DVD2279 (bispecific antibody)
VH: EVQLVESGGGLVQPGGSLRLSCAASGFTFSIYSMNWVRQAPGKGLEWVSYISSSSSTIYYADSVKGRFTISRDNAKNSLYLQMNSLRDEDTAVYYCARDRGDFDAFDIWGQGTMVTVSSASTKGPEVQLVQSGAEVKKPGSSVKVSCKASGGTFSSYAISWVRQAPGQGLEWMGGIIPIFGTANYAQKFQGRVTITADKSTSTAYMELSSLRSEDTAVYYCARAPLRFLEWSTQDHYYYYYMDVWGKGTTVTVSS
VL: DIQMTQSPSSLSASVGDRVTITCQASQDITNYLNWYQQKPGKAPKLLIYDASNLETGVPSRFSGSGSGTDFTFTISSLQPEDIATYNCQQCENFPITFGQGTRLEIKRTVAAPSSELTQDPAVSVALGQTVRITCQGDSLRSYYATWYQQKPGQAPILVIYGENKRPSGIPDRFSGSSSGNTASLTITGAQAEDEADYYCKSRDGSGQHLVFGGGTKLTVL
notes: DVD-Ig, outer AB063 / inner AB075

GEO MEAN (EGFR on the cell surface [1]): 9.84
B6: DVD2347 (bispecific antibody)
VH: EVQLVQSGGGLVKPGGSLRLSCAASGFTFSSFAMHWVRQAPGKGLEWISVIDTRGATYYADSVKGRFTISRDNAKNSLYLQMNSLRAEDTAVYYCARLGNFYYGMDVWGQGTTVTVSSASTKGPQVQLQESGPGLVKPSQTLSLTCTVSGYSISSDFAWNWIRQPPGKGLEWMGYISYSGNTRYQPSLKSRITISRDTSKNQFFLKLNSVTAADTATYYCVTAGRGFPYWGQGTLVTVSS
VL: EIVLTQSPGTLSVSPGERATLSCRASQSIGSSLHWYQQKPGQAPRLLIKYASQSLSGIPDRFSGSGSGTDFTLTISRLEPEDFAVYYCHQSSRLPHTFGQGTKVEIKRTVAAPDIQMTQSPSSMSVSVGDRVTITCHSSQDINSNIGWLQQKPGKSFKGLIYHGTNLDDGVPSRFSGSGSGTDYTLTISSLQPEDFATYYCVQYAQFPWTFGGGTKLEIK

Kd (Recombinant Human IGF1R [3]): 5 nM
koff (Recombinant Human IGF1R [3]): 0.00012 s⁻¹
kon (Recombinant Human IGF1R [3]): 25000 M⁻¹ s⁻¹
B8: DVD2283 (bispecific antibody)
VH: QVQLQQWGAGLLKPSETLSLTCAVYGGSFSGYYWSWIRQPPGKGLEWIGEINHSGSTNYNPSLKSRVTISVETSKNQFSLKLSSVTAADTAVYYCARDKWTWYFDLWGRGTLVTVSSASTKGPEVQLVQSGAEVKKPGSSVKVSCKASGGTFSSYAISWVRQAPGQGLEWMGGIIPIFGTANYAQKFQGRVTITADKSTSTAYMELSSLRSEDTAVYYCARAPLRFLEWSTQDHYYYYYMDVWGKGTTVTVSS
VL: DIEMTQSPDSLAVSLGERATINCRSSQSVLYSSSNRNYLAWYQQNPGQPPKLLIYWASTRESGVPDRFSGSGSGTDFTLTISSLQAEDVAVYYCQQYYSTPRTFGQGTKVEIKRTVAAPSSELTQDPAVSVALGQTVRITCQGDSLRSYYATWYQQKPGQAPILVIYGENKRPSGIPDRFSGSSSGNTASLTITGAQAEDEADYYCKSRDGSGQHLVFGGGTKLTVL
notes: DVD-Ig, outer AB062 / inner AB075

Kd (Recombinant Human IGF1R [5]): 6.6 nM
koff (Recombinant Human IGF1R [5]): 0.00012 s⁻¹
kon (Recombinant Human IGF1R [5]): 19000 M⁻¹ s⁻¹
B10: DVD2216 (bispecific antibody)
VH: EVQLVQSGAEVKKPGSSVKVSCKASGGTFSSYAISWVRQAPGQGLEWMGGIIPIFGTANYAQKFQGRVTITADKSTSTAYMELSSLRSEDTAVYYCARAPLRFLEWSTQDHYYYYYMDVWGKGTTVTVSSASTKGPEVQLLESGGGLVQPGGSLRLSCTASGFTFSSYAMNWVRQAPGKGLEWVSAISGSGGTTFYADSVKGRFTISRDNSRTTLYLQMNSLRAEDTAVYYCAKDLGWSDSYYYYYGMDVWGQGTTVTVSS
VL: SSELTQDPAVSVALGQTVRITCQGDSLRSYYATWYQQKPGQAPILVIYGENKRPSGIPDRFSGSSSGNTASLTITGAQAEDEADYYCKSRDGSGQHLVFGGGTKLTVLGQPKAAPSVTLFPPDIQMTQFPSSLSASVGDRVTITCRASQGIRNDLGWYQQKPGKAPKRLIYAASRLHRGVPSRFSGSGSGTEFTLTISSLQPEDFATYYCLQHNSYPCSFGQGTKLEIK
notes: as for B9

binding result (Recombinant Human IGF1R [3]): no binding (tested: 10-200 nM)
Kd [4]: 40 nM
B11: DVD2336 (bispecific antibody)
VH: QVQLQESGPGLVKPSEILSLTCTVSGGSISSHYWSWVRQPPGKGLEWIGYIYYSGSTNYNPSLKSRVTISVDTSKNQFSLNLSSVTAADTAVYYCARIPNYYDRSGYYPGYWYFDLWGRGTLVTVSSASTKGPEVQLVQSGGGLVKPGGSLRLSCAASGFTFSSFAMHWVRQAPGKGLEWISVIDTRGATYYADSVKGRFTISRDNAKNSLYLQMNSLRAEDTAVYYCARLGNFYYGMDVWGQGTTVTVSS
VL: QAVLTQPSSLSAPPGASASLTCTLRSGFNVDSYRISWYQQKPGSPPQYLLRYKSDSDKQQGSGVPSRFSGSKDASANAGILLISGLQSEDEADYYCMIWHSSAWVFGGGTKLTVLRQPKAAPEIVLTQSPGTLSVSPGERATLSCRASQSIGSSLHWYQQKPGQAPRLLIKYASQSLSGIPDRFSGSGSGTDFTLTISRLEPEDFAVYYCHQSSRLPHTFGQGTKVEIK
notes: DVD-Ig, outer AB034 / inner AB077
